{
  "source": "IntAct's records for PubMed 22064073",
  "parents": {"B1": {"name": "PAX-interacting protein 1 (Homo sapiens), Q6ZW49-1 (parent)", "chain": "MVFLQNHVRFFLESLPAFLRVLIQAGALCWSLPELSQGEVGKGACPAEVGKHRDHLPSSDPVLMQAEASVVMCWVSSEDRSALWALVTFYGGDCQLTLNKKCTHLIVPEPKGEKYECALKRASIKIVTPDWVLDCVSEKTKKDEAFYHPRLIIYEEEEEEEEEEEEVENEEQDSQNEGSTDEKSSPASSQEGSPSGDQQFSPKSNTEKSKGELMFDDSSDSSPEKQERNLNWTPAEVPQLAAAKRRLPQGKEPGLINLCANVPPVPGNILPPEVRGNLMAAGQNLQSSERSEMIATWSPAVRTLRNITNNADIQQMNRPSNVAHILQTLSAPTKNLEQQVNHSQQGHTNANAVLFSQVKVTPETHMLQQQQQAQQQQQQHPVLHLQPQQIMQLQQQQQQQISQQPYPQQPPHPFSQQQQQQQQAHPHQFSQQQLQFPQQQLHPPQQLHRPQQQLQPFQQQHALQQQFHQLQQHQLQQQQLAQLQQQHSLLQQQQQQQIQQQQLQRMHQQQQQQQMQSQTAPHLSQTSQALQHQVPPQQPPQQQQQQQPPPSPQQHQLFGHDPAVEIPEEGFLLGCVFAIADYPEQMSDKQLLATWKRIIQAHGGTVDPTFTSRCTHLLCESQVSSAYAQAIRERKRCVTAHWLNTVLKKKKMVPPHRALHFPVAFPPGGKPCSQHIISVTGFVDSDRDDLKLMAYLAGAKYTGYLCRSNTVLICKEPTGLKYEKAKEWRIPCVNAQWLGDILLGNFEALRQIQYSRYTAFSLQDPFAPTQHLVLNLLDAWRVPLKVSAELLMSIRLPPKLKQNEVANVQPSSKRARIEDVPPPTKKLTPELTPFVLFTGFEPVQVQQYIKKLYILGGEVAESAQKCTHLIASKVTRTVKFLTAISVVKHIVTPEWLEECFRCQKFIDEQNYILRDAEAEVLFSFSLEESLKRAHVSPLFKAKYFYITPGICPSLSTMKAIVECAGGKVLSKQPSFRKLMEHKQNSSLSEIILISCENDLHLCREYFARGIDVHNAEFVLTGVLTQTLDYESYKFN"}},
  "data": [
    {"variants_of": "B1", "details": "with h2ax_human H2AX", "values": [
      {"variant": "K879M", "effect of a mutation on the interaction": "disrupting interaction"}
    ]},
    {"variants_of": "B1", "details": "with h2ax_human H2AX", "remark": "another data set of the same source", "values": [
      {"variant": "E1016A", "effect of a mutation on the interaction": "decreasing interaction"}
    ]},
    {"variants_of": "B1", "details": "with h2ax_human H2AX", "remark": "another data set of the same source", "values": [
      {"variant": "T838A", "effect of a mutation on the interaction": "disrupting interaction"}
    ]},
    {"variants_of": "B1", "details": "with h2ax_human H2AX", "remark": "another data set of the same source", "values": [
      {"variant": "R876D", "effect of a mutation on the interaction": "disrupting interaction"}
    ]},
    {"variants_of": "B1", "details": "with h2ax_human H2AX", "remark": "another data set of the same source", "values": [
      {"variant": "T1020A", "effect of a mutation on the interaction": "increasing interaction"}
    ]}
  ]
}
